14 molecules from patent US7514534 (DYAX, dated 2009) can be followed below.

To fix the notation:
B1: C10 (antibody, human IgG4, V domains shown)
VH: EVQLLESGGGLVQPGGSLRLSCAASGFTFSVYVMMWVRQAPGKGLEWVSGIVPSGGKTHYADSVKGRFTISRDNSKNTLYLQMNSLRAEDTAVYYCARPDYGGNSRPLEYWGQGTLVTVSS
VL: QSELTQPASVSGSPGQSITISCTGTSSDVGSYNLVSWYQQHPGKAPKLMIYEGSKRPSGVSNRFSGSKSGNTASLTISGLQAEDEADYYCCSYAGSSTYVFGTGTKVTVLG
notes: whole human IgG4
B2: A03 (antibody, human IgG4, V domains shown)
VH: EVQLLESGGGLVQPGGSLRLSCAASGFTFSIYSMDWVRQAPGKGLEWVSSIYSSGGATRYADSVKGRFTISRDNSKNTLYLQMNSLRAEDTAVYYCARCSWLQLVPMHPWGQGTLVTVSS
VL: QSALTQPPSASGTPGQRVTISCSGGSSNIGSNFVYWYRQLPGTAPKLLIYRNYQRPSGVPDRFSGSKSGTSASLAISGLLSEDEADYYCAAWDDNVGGVFGSGTKVTVLG
notes: whole human IgG4
B3: D06 (antibody, human IgG4, V domains shown)
VH: EVQLLESGGGLVQPGGSLRLSCAASGFTFSGYIMEWVRQAPGKGLEWVSVIVSSGGFTMYADSVKGRFTISRDNSKNTLYLQMNSLRAEDTAVYYCARVGDSKGGYYLDYWGQGTLVTVSS
VL: DIQMTQSPSSLSASVGDRVTITCRTSQIINTYLNWYQQKPGKAPKLLIYAASTLQGGVPSRFSGSGSGTDFTLTIKSLQPDDFATYYCQQSYTSPRTFGQGTKVEIKR
notes: whole human IgG4
B4: D01 (antibody, V domains shown)
VH: EVQLLESGGGLVQPGGSLRLSCAASGFTFSMYLMFWVRQAPGKGLEWVSVISSSGGETSYADSVKGRFTISRDNSKNTLYLQMNSLRAEDTAVYYCARQVSDWTRLYSFDYWGQGTLVTVSS
VL: QSELTQPPSASGTPGQRITISCSGSSSNIGSNYVYWYQQFPETAPKLLISRNDQRPSGVPDRFSGSKSGTSASLAISGLRSEDEADYYCASWDDSLSGVVFGGGTKLTVLG
notes: whole human IgG4
B5: C06 (antibody, human IgG4, V domains shown)
VH: EVQLLESGGGLVQPGGSLRLSCAASGFTFSFYFMFWVRQAPGKGLEWVSYIGPSGGPTNYADSVKGRFTISRDNSKNTLYLQMNSLRAEDTAVYYCARHYPREYQLPGSFDPWGQGTLVTVSS
VL: DIQMTQSPSSLSASVGDRVTITCRASQGISNYLAWYQQKPGKVPKLLIYPASTLQSGVPSRFSGSGSGTDFTLTISSLQPEDFATYYCQQADSFPPTFGGGTTVEIRR
notes: whole human IgG4
B6: C09 (antibody, human IgG4, V domains shown)
VH: EVQLLESGGGLVQPGGSLRLSCAASGFTFSQYFMNWVRQAPGKGLEWVSYISGGRTPYADSVKGRFTISRDNSKNTLYLQMNSLRAEDTAVYYCAILLGPSSSNHPFLGPWGQGTLVTVSS
VL: DIQMTQSPGTLSLSPGERATLSCRASQSVSSTYLAWYQQKPGQAPRLLISGASSRATGIPDRFSGSGSGTDFTLTISRLEPEDFAVYYCQQYGSSPYTFGQGTKLEIKR
notes: whole human IgG4
B7: C08 (antibody, human IgG4, V domains shown)
VH: EVQLLESGGGLVQPGGSLRLSCAASGFTFSYYEMMWVRQAPGKGLEWVSSISPSGGPTMYADSVKGRFTISRDNSKNTLYLQMNSLRAEDTGVYYCARKMGRVGYCSSTSCYRDDYYGMDVWGQGTTVTVSS
VL: DIQMTQSPPSLSALVGDRVTITCRASQSISRYVNWYQQKPGKAPKVLIYAASIVENGVPSRFSGSGSGTDFSLTISSLQPEDFATYYCQQTYSTPLTFGGGTKLAIKR
notes: whole human IgG4
B8: C11 (antibody, human IgG4, V domains shown)
VH: EVQLLESGGGLVQPGGSLRLSCAASGFTFSEYPMWWVRQAPGKGLEWVSWIYPSGGNTDYADSVKGRFTISRDNSKNTLYLQMNSLRAEDTAVYYCAIPYCSSSSCPLHWGQGTLVTVSS
VL: QSELTQPPSASGSPGQSVTISCTGTSSDVGGYNYVSWYQQHPDKAPKLLIYEVTQRPSGVPDRFSGSRSGNTASLTVSGLQAEDEADYYCSSYAGRNNLYVFGPGTKVTVLG
notes: whole human IgG4
B9: A04 (antibody, human IgG4, V domains shown)
VH: EVQLLESGGGLVQPGGSLRLSCAASGFTFSEYNMAWVRQAPGKGLEWVSRIGSSGGKTKYADSVKGRFTISRDNSKNTLYLQMNSLRAEDTAVYYCARDEAPDYGDDAEAFDIWGQGTMVTVSS
VL: QSALTQPPSASGTPGQRVTISCSGGYSNMGSNYAHWYQQVPGTAPKLLIYNNNQRPSGVPDRFSGSKSGTSASLAISGLRSEDEADYYCAAWDENLSGPVFGTGTKVTVLG
notes: whole human IgG4
B10: C07 (antibody, human IgG4, V domains shown)
VH: EVQLLESGGGLVQPGGSLRLSCAASGFTFSYYVMMWVRQAPGKGLEWVSVIRPSGGITTYADSVKGRFTISRDNSKNTLYLQTNSLRAEDTAVYYCAKIDYGGNSFYFDYWGQGTLVTVSS
VL: DIQMTQSPSSLSASVGDRVTITCRASQSISNYLNWYQQRPGKAPKLLIYAASSLERGVPSRFSGSGSGTDFTLTISSLQSEDFATYYCQQSYSPPPLTFGGGTKLEIKR
notes: whole human IgG4
B11: D04 (antibody, human IgG4, V domains shown)
VH: EVQLLESGGGLVQPGGSLRLSCAASGFTFSDYQMMWVRQAPGKGLEWVSRISPSGGMTRYADSVKGRFTISRDNSKNTLYLPMNSLRAEDTAVYYCARSGPYYFDYWGQGTLVTVSS
VL: DIQMTQSPSSLSASVGDRVAITCRASQSIDTYLNWYQQKPGKAPKLLIYAASKLEDGVPSRFSGSGTGTDFTLTIRSLQPEDFASYFCQQSYSSPGITFGPGTKVEIKR
notes: whole human IgG4
B12: D03 (antibody, human IgG4, V domains shown)
VH: EVQLLESGGGLVQPGGSLRLSCAASGFTFSWYRMDWVRQAPGKGLEWVSVIGSSGGMTYYADSVKGRFTISRDNSKNTLYLQMNSLRAEDTAVYYCARRVVGGAGMDVWGQGTTVTVSS
VL: DIQMTQSPSAMSASVGDRVTITCRASQVMINYIAWFRQKPGKVPERLIYAASTLQNGVPSRFSGSGSGTDFTLTISRLEPEDFAVYYCQHRITWPPALTFGGGTTVEIKR
notes: whole human IgG4
B13: D07 (antibody, human IgG4, V domains shown)
VH: EVQLLESGGGLVQPGGSLRLSCAASGFTFSEYNMFWVRQAPGKGLEWVSYIYSSGGSTDYADSVKGRFTISRDNSKNTLYLQMNSLRAEDTAVYYCARVGIAARPFDPWGQGTLVTVSS
VL: QSELTQPASVSGSPGQSITISCTGTNSDIGGYNYVSWYQQHPGKVPKLLIFEVNNRPSGVSSRFSGSKSGDTASLTISGLQPEDEAVYYCGSFTVSVTYVFGTGTKVTVLG
notes: whole human IgG4
B14: D02 (antibody, human IgG4, V domains shown)
VH: EVQLLESGGGLVQPGGSLRLSCAASGFTFSWYDMAWVRQAPGKGLEWVSRIVPSGGHTSYADSVKGRFTISRDNFKNTLYLQMNSLRAEDTAVYYCARRASRPEFFDYWGQGALVTVSS
VL: DIQMTQSPSFLSASVGDRVTITCRASQGISTYLAWYQQKPGKAPKVLIYTASTLQSGVPSRFSGSGSGTEFTLTISSLQPEDFATYYCQQSYITPPEVTFGPGTKVDIKR
notes: whole human IgG4

T2 sequence (P14780 107-707 limits assumed): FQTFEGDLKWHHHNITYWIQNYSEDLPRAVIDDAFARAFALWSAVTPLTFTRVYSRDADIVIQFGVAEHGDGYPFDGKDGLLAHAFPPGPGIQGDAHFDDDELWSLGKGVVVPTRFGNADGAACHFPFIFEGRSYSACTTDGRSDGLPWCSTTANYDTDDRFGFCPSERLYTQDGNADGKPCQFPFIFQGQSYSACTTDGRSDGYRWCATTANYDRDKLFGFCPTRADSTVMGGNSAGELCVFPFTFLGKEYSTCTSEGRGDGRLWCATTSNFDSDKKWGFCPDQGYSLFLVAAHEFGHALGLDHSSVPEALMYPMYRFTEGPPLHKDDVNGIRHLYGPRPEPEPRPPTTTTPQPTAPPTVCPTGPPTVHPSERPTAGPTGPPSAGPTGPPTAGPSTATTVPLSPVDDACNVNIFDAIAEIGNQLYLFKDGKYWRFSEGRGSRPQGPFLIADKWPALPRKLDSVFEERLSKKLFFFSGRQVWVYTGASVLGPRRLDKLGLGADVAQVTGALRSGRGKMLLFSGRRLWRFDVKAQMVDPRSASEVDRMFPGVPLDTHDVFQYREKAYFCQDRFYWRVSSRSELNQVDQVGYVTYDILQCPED
T1 sequence (P08254 100-477 limits assumed): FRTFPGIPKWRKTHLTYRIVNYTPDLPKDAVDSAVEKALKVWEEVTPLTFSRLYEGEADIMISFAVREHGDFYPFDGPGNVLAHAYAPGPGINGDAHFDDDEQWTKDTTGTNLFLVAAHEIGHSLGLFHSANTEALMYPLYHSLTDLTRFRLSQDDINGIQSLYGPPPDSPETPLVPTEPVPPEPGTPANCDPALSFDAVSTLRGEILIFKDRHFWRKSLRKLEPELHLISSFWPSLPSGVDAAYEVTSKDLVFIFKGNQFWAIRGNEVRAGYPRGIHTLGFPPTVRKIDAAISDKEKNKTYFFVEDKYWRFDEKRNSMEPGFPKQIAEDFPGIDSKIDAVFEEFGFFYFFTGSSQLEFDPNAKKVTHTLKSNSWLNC

The first experiment concerns the target T1, MMP-3 (UniProt P08254 100-477, limits assumed).
T1 construct: also called stromelysin-1
The experiment is described as follows: cross-reactivity ELISA on coated MMP. How it is done:
(§1) Twenty-one of the reformatted MMP-26 antibodies were tested for MMP cross reactivity by ELISA analysis. MMP-3, MMP-7, MMP-9, and MMP-12 were coated onto Immulon 2 HB 96-well plates at a concentration of 1 μg/ml for 1 hour at 37° C. The plates were blocked with PBS-T containing 5% (w/v) nonfat dry milk for thirty minutes and subsequently washed with PBS-T. Each antibody was tested for reactivity to all of the above mentioned MMPs at a concentration of 2 μg/ml with an incubation time of 1 hour. Bound antibody was detected with an HRP-conjugated anti-human secondary antibody (Table 3, NT=not tested.).
A general note: ELISA stands for enzyme-linked immunosorbent assay.
On to B1, for which the binding result is on record as “no binding (tested: 2 µg/ml)”.

As to B2, the binding result was “no binding (tested: 2 µg/ml)”.

B3: the binding result is listed as “no binding (tested: 2 µg/ml)”.

For B4, the binding result is recorded as “no binding (tested: 2 µg/ml)”.

As to B5, the binding result was “no binding (tested: 2 µg/ml)”.

For the molecule B6, the binding result was “no binding (tested: 2 µg/ml)”.

As to B7, the binding result is “no binding (tested: 2 µg/ml)”.

In the case of B8, the binding result is recorded as “no binding (tested: 2 µg/ml)”.

Consider B9, for which the binding result is “no binding (tested: 2 µg/ml)”.

Regarding B10, the binding result is recorded as “no binding (tested: 2 µg/ml)”.

As for B11, the binding result is reported as “no binding (tested: 2 µg/ml)”.

As for B12, the binding result is listed as “no binding (tested: 2 µg/ml)”.

Turning to B13, the binding result was “no binding (tested: 2 µg/ml)”.

For B14, the binding result is “no binding (tested: 2 µg/ml)”.

A further experiment concerns the target T2, MMP-9 (UniProt P14780 107-707, limits assumed).
T2 construct: also called gelatinase
The experiment is described as follows: cross-reactivity ELISA on coated MMP. Here is the method:
as §1
Regarding B1, the binding result is “no binding (tested: 2 µg/ml)”.

As to B2, the binding result is listed as “no binding (tested: 2 µg/ml)”.

B3: the binding result is “no binding (tested: 2 µg/ml)”.

With B4, the binding result was “no binding (tested: 2 µg/ml)”.

Turning to B5, the binding result is on record as “no binding (tested: 2 µg/ml)”.

As for B6, the binding result is “no binding (tested: 2 µg/ml)”.

Take B7: the binding result is given as “no binding (tested: 2 µg/ml)”.

As for B8, the binding result is “no binding (tested: 2 µg/ml)”.

With B9, the binding result is “no binding (tested: 2 µg/ml)”.

Take B10: the binding result is “no binding (tested: 2 µg/ml)”.

For B11, the binding result is “no binding (tested: 2 µg/ml)”.

Regarding B12, the binding result is listed as “no binding (tested: 2 µg/ml)”.

Regarding B13, the binding result is reported as “no binding (tested: 2 µg/ml)”.

In the case of B14, the binding result is on record as “no binding (tested: 2 µg/ml)”.

The next experiment has as its target T3, MMP-26 catalytic domain, tagged with hexa-histidine (human, UniProt Q9NRE1 90-261).
T3 construct: the forward primer adds Met-Ala before it; also called MMP-26 target protein; Matrilysin-2; not shown: Also any N-terminal residues added by the forward primer (Met-Ala according to our card; the primers were not visible to me)
T3 sequence: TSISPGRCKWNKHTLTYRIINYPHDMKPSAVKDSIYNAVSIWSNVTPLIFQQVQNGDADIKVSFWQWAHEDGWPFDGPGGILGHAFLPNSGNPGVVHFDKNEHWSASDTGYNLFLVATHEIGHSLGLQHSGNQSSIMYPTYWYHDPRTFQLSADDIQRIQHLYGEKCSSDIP
The experiment in a line: bead-based ELISA, MMP-26 on nickel beads, IgG4 culture supernatant. How it is done: Reformatted and expressed full-length MMP-26 binding IgG4 antibodies were tested for specificity in a bead-based ELISA. Approximately 1.25 μg of MMP-26 protein was bound to nickel-coated magnetic beads (Novagen) which had been pre-blocked with phosphate buffered saline containing 5% (w/v) nonfat dry milk and 0.05% (v/v) Tween-20. The beads were washed in phosphate buffered saline containing 0.05% (v/v) Tween-20 (PBS-T) and 100 uls of unpurified cell culture supernatant containing transiently produced MMP-26-binding antibodies was added and incubated on a rotator for sixty minutes. The beads were washed with PBS-T and MMP-26-binding antibodies were detected with an HRP-conjugated anti-human secondary antibody. Data is expressed in fold over background where background consists of beads, blocking agent, and culture supernatant containing target antibody (Table 2; in this table, Results shown as fold over background (F>B) where background consists of beads, blocking agent, and culture supernatant).
As to B1, the “F > B (fold over background)” value is 3.41 fold over background.

Consider B2, for which the “F > B (fold over background)” value is 3.54 fold over background.

Consider B3, for which the “F > B (fold over background)” value amounted to 3.5 fold over background.

As to B4, the “F > B (fold over background)” value turned out to be 3 fold over background.

Consider B5, for which the “F > B (fold over background)” value is 2.2 fold over background.

As for B6, the “F > B (fold over background)” value turned out to be 3.4 fold over background.

On to B7, for which the “F > B (fold over background)” value worked out at 3.4 fold over background.

In the case of B8, the “F > B (fold over background)” value is 2.6 fold over background.

For B9, the “F > B (fold over background)” value was 3.17 fold over background.

As to B10, the “F > B (fold over background)” value was found to be 3.12 fold over background.

Take B11: the “F > B (fold over background)” value amounted to 2.6 fold over background.

As for B12, the “F > B (fold over background)” value was determined as 2.4 fold over background.

Take B13: the “F > B (fold over background)” value was 3.3 fold over background.

Consider B14, for which the “F > B (fold over background)” value was found to be 3.3 fold over background.
